Laboratory results as given in patent US20250236673A1 (Ablynx, published 2025).
Positions count from the first letter of the chain named. Names and notes keep the numbering of the source.

T1: recombinant human CEACAM5 (human, UniProt P06731 35-685, limits assumed)
T1 construct: Immobilised by amine coupling on a CM5 chip
T1 sequence (looked up): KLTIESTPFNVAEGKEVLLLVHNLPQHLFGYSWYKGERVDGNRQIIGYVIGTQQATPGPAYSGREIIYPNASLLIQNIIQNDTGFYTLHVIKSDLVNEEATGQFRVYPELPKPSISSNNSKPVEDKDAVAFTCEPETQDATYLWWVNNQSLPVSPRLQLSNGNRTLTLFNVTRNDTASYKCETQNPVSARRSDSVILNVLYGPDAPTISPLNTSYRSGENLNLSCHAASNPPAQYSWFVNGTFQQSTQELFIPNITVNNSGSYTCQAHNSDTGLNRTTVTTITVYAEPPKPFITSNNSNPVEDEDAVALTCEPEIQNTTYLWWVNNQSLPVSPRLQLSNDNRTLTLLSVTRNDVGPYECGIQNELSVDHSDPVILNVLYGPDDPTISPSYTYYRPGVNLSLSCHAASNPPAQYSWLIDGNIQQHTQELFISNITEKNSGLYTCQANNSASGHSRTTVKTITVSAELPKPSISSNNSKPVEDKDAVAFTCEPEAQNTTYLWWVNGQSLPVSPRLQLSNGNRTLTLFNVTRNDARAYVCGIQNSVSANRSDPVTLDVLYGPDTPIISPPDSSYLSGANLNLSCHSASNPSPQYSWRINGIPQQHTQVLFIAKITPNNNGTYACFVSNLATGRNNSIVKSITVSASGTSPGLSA

B1: T028501813 (VHH)
VHH: EVQLVESGGGVVQPGGSLRLSCAASGFTFRSFGMSWVRQAPGKGPEWVSSISGSGSDTLYADSVKGRFTISRDNSENTLYLQMNSLRPEDTALYYCTIGGSLSRSSQGTLVTVSS
notes: K75E vs precursor T028501805; also called HSA006A06(K75E, K83R)
B2: T028501809 (VHH)
VHH: B1 VHH with K43A, E76K
notes: K43A vs precursor T028501805; also called HSA006A06(K43A, K83R)
B3: T028501815 (VHH)
VHH: B1 VHH with E76R
notes: K75R vs precursor T028501805; also called HSA006A06(K75R, K83R)
B4: T028501812 (VHH)
VHH: B1 VHH with K65H, E76K
notes: K64H vs precursor T028501805; also called HSA006A06(K64H, K83R)
B5: T028501807 (VHH)
VHH: B1 VHH with K43Q, E76K
notes: K43Q vs precursor T028501805; also called HSA006A06(K43Q, K83R)
B6: T028501817 (VHH)
VHH: EVQLVESGGGVVQPGGSLRLSCAASGHTFSEYALGWFRQAPGKEREFVAAINWGGGWTYYADSVKGRFTISRDNAKNTLYLQMNSLRPEDTALYYCAASSDYAGGNPTGYPYWGQGTLVTVSS
notes: also called A031500099; A0315024B02(L11V, A14P, D16G S23A, M43K, Q64K, K83R, G85E, G89L)
B7: T028501819 (VHH)
VHH: B6 VHH with K43Q
notes: K43Q vs precursor T028501817; also called A0315024B02(M43Q, Q64K, K83R)
B8: T028501831 (VHH)
VHH: B6 VHH with K76H
notes: K75H vs precursor T028501817; also called A0315024B02(M43K, Q64K, K75H, K83R)
B9: T028501825 (VHH)
VHH: B6 VHH with K65R
notes: K64R vs precursor T028501817; also called A0315024B02(M43K, Q64R, K83R)
B10: T028501822 (VHH)
VHH: B6 VHH with K43A
notes: K43A vs precursor T028501817; also called A0315024B02(M43A, Q64K, K83R)
B11: T028501821 (VHH)
VHH: B6 VHH with K43H
notes: K43H vs precursor T028501817; also called A0315024B02(M43H, Q64K, K83R)
B12: T028501829 (VHH)
VHH: B6 VHH with K76Q
notes: K75Q vs precursor T028501817; also called A0315024B02(M43K, Q64K, K75Q, K83R)
B13: T028501824 (VHH)
VHH: B6 VHH with K65Q
notes: also called A0315024B02(M43K, (K64K83R))
B14: T028501828 (VHH)
VHH: B6 VHH with K76E
notes: K75E vs precursor T028501817; 38 used; also called A0315024B02(M43K, Q64K, K75E, K83R)
B15: T028501818 (VHH)
VHH: B6 VHH with K43E
notes: K43E vs precursor T028501817; also called A0315024B02(M43E, Q64K, K83R)
B16: T028501830 (VHH)
VHH: B6 VHH with K76R
notes: K75R vs precursor T028501817; also called A0315024B02(M43K, Q64K, K75R, K83R)
B17: T028501823 (VHH)
VHH: B6 VHH with K65E
notes: K64E vs precursor T028501817; also called A0315024B02(M43K, Q64E, K83R)
B18: T028501820 (VHH)
VHH: B6 VHH with K43R
notes: K43R vs precursor T028501817; also called A0315024B02(M43R, Q64K, K83R)
B19: T028501826 (VHH)
VHH: B6 VHH with K65H
notes: K64H vs precursor T028501817; also called A0315024B02(M43K, Q64H, K83R)
B20: T028501827 (VHH)
VHH: B6 VHH with K65A
notes: K64A vs precursor T028501817; also called A0315024B02(M43K, Q64A, K83R)
B21: T028501832 (VHH)
VHH: B6 VHH with K76A
notes: K75A vs precursor T028501817; also called A0315024B02(M43K, Q64K,K75A, K83R)

Columns and labels:
[1] = target: T2, human serum albumin (human, UniProt P02768 25-609); experiment: SPR Biacore 8K+, HSA amine-coupled on C1 chip, ISVD analyte, 1:1 fit
T2 construct: Immobilised by amine coupling on a C1 chip; also called HSA
T2 sequence (P02768 25-609 limits assumed): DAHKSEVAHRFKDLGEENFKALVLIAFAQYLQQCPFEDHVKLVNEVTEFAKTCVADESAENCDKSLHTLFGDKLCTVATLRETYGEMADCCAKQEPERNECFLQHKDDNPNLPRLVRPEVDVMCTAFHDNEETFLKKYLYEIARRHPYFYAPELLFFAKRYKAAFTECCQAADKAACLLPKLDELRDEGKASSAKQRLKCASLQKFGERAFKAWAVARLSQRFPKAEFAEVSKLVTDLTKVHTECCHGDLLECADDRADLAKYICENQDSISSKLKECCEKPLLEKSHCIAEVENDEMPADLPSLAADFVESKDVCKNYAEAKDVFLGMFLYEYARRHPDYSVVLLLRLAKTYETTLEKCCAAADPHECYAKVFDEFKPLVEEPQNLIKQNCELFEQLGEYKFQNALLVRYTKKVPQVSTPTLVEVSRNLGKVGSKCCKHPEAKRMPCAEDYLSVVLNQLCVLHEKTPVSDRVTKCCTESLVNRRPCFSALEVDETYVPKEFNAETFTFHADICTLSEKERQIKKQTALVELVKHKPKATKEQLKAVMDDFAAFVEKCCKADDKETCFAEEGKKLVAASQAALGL

[2] = target: T1, recombinant human CEACAM5; experiment: SPR Biacore 8K+, CEACAM5 amine-coupled on CM5, ISVD analyte, 1:1 fit

Binder | Kd [1] | koff [1] | kon [1] | Kd [2] | koff [2] | kon [2]
B1 | 1.98 nM | 0.00102 s⁻¹ | 514000 M⁻¹ s⁻¹ | – | – | –
B2 | 1.13 nM | 0.000872 s⁻¹ | 769000 M⁻¹ s⁻¹ | – | – | –
B3 | 1.48 nM | 0.00127 s⁻¹ | 860000 M⁻¹ s⁻¹ | – | – | –
B4 | 1.74 nM | 0.00102 s⁻¹ | 590000 M⁻¹ s⁻¹ | – | – | –
B5 | 1.76 nM | 0.00119 s⁻¹ | 677000 M⁻¹ s⁻¹ | – | – | –
B6 | – | – | – | 8.9 nM | 0.00212 s⁻¹ | 238000 M⁻¹ s⁻¹
B7 | – | – | – | 8.74 nM | 0.00199 s⁻¹ | 228000 M⁻¹ s⁻¹
B8 | – | – | – | 7.8 nM | 0.00209 s⁻¹ | 268000 M⁻¹ s⁻¹
B9 | – | – | – | 7.27 nM | 0.00241 s⁻¹ | 331000 M⁻¹ s⁻¹
B10 | – | – | – | 8.77 nM | 0.00198 s⁻¹ | 225000 M⁻¹ s⁻¹
B11 | – | – | – | 9.11 nM | 0.00193 s⁻¹ | 212000 M⁻¹ s⁻¹
B12 | – | – | – | 7.14 nM | 0.00208 s⁻¹ | 291000 M⁻¹ s⁻¹
B13 | – | – | – | 12.2 nM | 0.00249 s⁻¹ | 205000 M⁻¹ s⁻¹
B14 | – | – | – | 7.51 nM | 0.00203 s⁻¹ | 270000 M⁻¹ s⁻¹
B15 | – | – | – | 10.5 nM | 0.00226 s⁻¹ | 215000 M⁻¹ s⁻¹
B16 | – | – | – | 6.01 nM | 0.00207 s⁻¹ | 344000 M⁻¹ s⁻¹
B17 | – | – | – | 18.2 nM | 0.00282 s⁻¹ | 155000 M⁻¹ s⁻¹
B18 | – | – | – | 7.13 nM | 0.00172 s⁻¹ | 242000 M⁻¹ s⁻¹
B19 | – | – | – | 8.42 nM | 0.00232 s⁻¹ | 275000 M⁻¹ s⁻¹
B20 | – | – | – | 7.95 nM | 0.00235 s⁻¹ | 295000 M⁻¹ s⁻¹
B21 | – | – | – | 6.34 nM | 0.00204 s⁻¹ | 322000 M⁻¹ s⁻¹
